In US20260275304A1, “METHODS AND COMPOSITIONS FOR GLYPHOSATE TOLERANCE IN PLANTS” (Monsanto Technology LLC, priority 2023, published 2026):
Where a chain is given by its changes, count along the chain named. Numbers in names are those of the source. Read-outs that look alike come from different tables or passages of the source.

Assays:
maize EPSPS = assay: In vitro characterization of EPSPS mutants (EnzChek phosphate assay, Michaelis-Menten kinetics, glyphosate Ki); format: biochemical, Zea mays; conditions: for Km: apparent Km, mean±S.E.; for Ki: inhibitory constant for glyphosate, no unit in table (around 800 μM)
Experimental: Activity was determined by quantifying release of Pi, coupled to a reaction with MESG, catalyzed by purine-nucleoside phosphorylase using the EnzChek Phosphate Assay Kit from Invitrogen, first published in 1992. 95 μL of master mix was added to each well and 5 μL of the varied substrate dilutions were multi-channeled into the plate to start the reaction simultaneously for all conditions. Absorbance measurements at 360 nm were taken every 10 seconds for 3 minutes to capture the initial reaction rate of each condition. Varying levels of substrate were added to generate the resulting reaction rate curves. Each condition was performed in triplicate. Ki was determined as previously described (Lu, et al., Protein Engineering, Design and Selection 30:395-399 (2017)). Data was fit to the Michaelis-Menten kinetics equation and were also validated through GraphPad Prism's built-in function for each variant.
For protein expression of EPSPS and its variants, E. coli BL21 (DE3) was used as the expression host. Electrocompetent cells were transformed with the corresponding constructed plasmids, pET28a (+) with selected EPSPS variants (wild-type, TIPS, TIPS P126S, TIPS K296R, TIPS P126S/K296R). A single colony of an E. coli BL21 (DE3) strain harboring one of the constructed plasmids was inoculated into 2 mL of Luria Bertani broth (LB) medium with 50 μg/mL kanamycin and grown overnight at 37° C./225 rpm. The overnight-grown culture (using 100 μl) was scaled up with 2000-fold dilution in a 500-mL triple baffled shake flask and grown to a cell density of 0.8 (optical density [OD600]) at 37° C./225 rpm. Protein expression was induced by adding 0.2 mM of isopropyl β-D-1-thiogalactopyranoside (IPTG) and cells were cultured for 24 hours at 20° C./225 rpm. The induced cell culture was harvested by centrifugation at 4,000 g and 4° C. for 20 mins. Cell pellets were then resuspended in 25 mL of Dulbecco's Phosphate Buffered Saline (DPBS) (Thermo Fisher Scientific, Waltham, MA) pH 7.0 buffer containing 10 mM imidazole, 1 g/L of lysozyme and 5 μl of Pierce™ Universal Nuclease (Thermo Fisher Scientific, Waltham, MA), followed by mixing on a rocker for 30 mins at 4° C. Subsequently, cells were lysed by sonication and the resulting cell lysate was centrifuged at 14,000 g and 4° C. for 20 minutes to obtain the supernatant that contains soluble proteins. Target proteins from the supernatant was purified by HisPur™ Ni-NTA Resin (Thermo Fisher Scientific, Waltham, MA) according to the manufacturer's instruction.
The eluate was dialyzed with 3C protease added to the dialysis cassette, into the appropriate buffer followed by size-exclusion fast protein liquid chromatography. All EPSP synthase variants were stored in 20 mM Tris (pH 7.5), 100 mM NaCl and 10 mM β-mercaptoethanol. The protein concentration was then determined by using the Coomassie Plus Bradford Assay kit (Thermo Fisher Scientific) and the Infinite M200 PRO microplate reader (Tecan, Männedorf, Switzerland) to measure the absorbance of assay mixtures. The presence and purity of the purified proteins were assessed by sodium dodecyl sulfate-polyacrylamide gel electrophoresis.
Enzymatic activity, including inhibitory constant Ki, for EPSPS and TIPS closely corroborate values determined by previous reports. Mutations P126S and K296R have beneficial effects on their own to both Km and kcat and are additive when combined, similar to the observations of the in vivo growth characterization. Furthermore, the high Ki is maintained for each of the variants, showing similar or slightly higher values of around 800 μM compared to the starting point, TIPS. These findings confirm the phenotype endowed by the dual-trait selection pressure employed during the directed evolution campaigns. Kinetic parameters of maize EPSPS with mutations discovered through directed evolution. In Table 4, initial velocity data were measured in triplicate and fit to the Michaelis-Menten equation. […]

transgenic maize plants = assay: Maize transformation with glyphosate selection, plantlet recovery and quality checks; format: in vivo, Zea mays; conditions: for Number of young plants passing quality control checks: in vivo; for Number of plantlets generated: under glyphosate selection, same amount of starting material
From the text: Maize was used as a model system to test the functionality of the EPSPS variants because of detailed previous characterization of glyphosate tolerance in maize and a suitable transgenic plant generation protocol that relies on glyphosate. Plant transformation vectors were generated in which the native maize EPSPS sequence was used, which includes the native gene promoter elements, the native introns and exons and the native 3′ untranslated region and introduced mutations that corresponded to each of the selected amino acid changes. The native sequence was used to mimic as closely as possible how the selected EPSPS variants would perform if the variants were introduced directly in the genome without the help of strong expression elements. The following variants were selected for testing in a transgenic maize system: TIPS (as a control); TIPS-P126S-M217L-K296R; TIPS-P126S-K296R; T102I-P126S-K296R (where only the T102I change is present); P106S-P126S-K296R (where only the P106S change is present); and P126S-K296R (where neither of the TIPS changes are present).
Transgenic maize plants that expressed each of the six EPSPS variants were generated to determine if the variants conferred glyphosate tolerance to plants. The full DNA sequence encoding TIPS EPSPS (SEQ ID NO:1) was cloned from maize genomic DNA. In this sequence, the promoter and 5′ UTR are nucleotides 1:2556; the chloroplast transit peptide sequence is nucleotides 2557:2742; EXON 1 is nucleotides 2743:2856; INTRON 1 is nucleotides 2857:3384; EXON 2 is nucleotides 3385:3626; INTRON 2 is nucleotides 3627:3725; EXON 3 is nucleotides 3726:3879; INTRON 3 is nucleotides 3880:4152; EXON 4 is nucleotides 4153:4367; INTRON 4 is nucleotides 4368:4877; EXON 5 is nucleotides 4878:4995; INTRON 5 is nucleotides 4996:5155; EXON 6 is nucleotides 5156:5366; INTRON 6 is nucleotides 5367:5446; EXON 7 is nucleotides 5447:5508; INTRON 7 is nucleotides 5509:5617; EXON 8 is nucleotides 5618:5836; and the 3′ UTR is nucleotides 5837:6368. Mutations were then introduced into the EPSPS coding sequence in order to produce each of the six EPSPS variants to be tested. These mutated full genomic DNA sequences were then each cloned as a single expression cassette into plant transformation vectors.
Agrobacterium tumefaciens-mediated plant transformation was performed using methods known in the art. Glyphosate selection was used to select for transgenic events containing the transgene of interest and further screened for only those EPSPS variants that provided effective glyphosate tolerance in a plant cell. While all six EPSPS variants began the transformation process with the same amount of starting maize cellular material, there were differences in the number of small plantlets recovered that were capable of being transplanted to greenhouse soil media (Table 4). Transgenic events were further analyzed to determine transgene copy number. Healthy events with single copy of the transgene of interest were grown in the greenhouse soil media. Only three of the six EPSPS variants had more than one plant surviving. Up to twenty-five of these developing R0 plants were transplanted to larger pots and allowed to grow to maturity for seed collection in the greenhouse.

[1] = PEP at saturation (roughly 10 times its Km), read-out: Km (S3P)
[2] = S3P at saturation (roughly 10 times its Km), read-out: Km (PEP)

B1: TIPS: Zea mays EPSPS double mutant T102I and P106S, SEQ ID NO:9; positive control (protein)
chain: AGAEEIVLQPIKEISGTVKLPGSKSLSNRILLLAALSEGTTVVDNLLNSEDVHYMLGALRTLGLSVEADKAAKRAVVVGCGGKFPVEDSKEEVQLFLGNAGIAMRSLTAAVTAAGGNATYVLDGVPRMRERPIGDLVVGLKQLGADVDCFLGTDCPPVRVNGIGGLPGGKVKLSGSISSQYLSALLMAAPLALGDVEIEIIDKLISIPYVEMTLRLMERFGVKAEHSDSWDRFYIKGGQKYKSPKNAYVEGDASSASYFLAGAAITGGTVTVEGCGTTSLQGDVKFAEVLEMMGAKVTWTETSVTVTGPPREPFGRKHLKAIDVNMNKMPDVAMTLAVVALFADGPTAIRDVASWRVKETERMVAIRTELTKLGASVEEGPDYCIITPPEKLNVTAIDTYDDHRMAMAFSLAACAEVPVAIRDPGCTRKTFPDYFDVLSTFVKN
modifications: Zea mays
notes: positive control
Km (maize EPSPS; [1]): 33.2 µM
Km (maize EPSPS; [2]): 26.2 µM
Ki (maize EPSPS): 739 µM
Number of young plants passing quality control checks (transgenic maize plants): 35
Number of plantlets generated (transgenic maize plants): 192

B2: TIPS-P126S-K296R: maize EPSPS variant, probably SEQ ID NO:11 (protein)
chain: B1 chain with P126S, K296R
modifications: Zea mays
Km (maize EPSPS; [1]): 16.8 µM
Km (maize EPSPS; [2]): 15.5 µM
enzymatic efficiency relative to TIPS (maize EPSPS; higher than evolutionary starting point TIPS): roughly 2.5 fold
Ki (maize EPSPS): 871 µM
Number of young plants passing quality control checks (transgenic maize plants): 38
Number of plantlets generated (transgenic maize plants): 190
